# Assay results from patent publication US20100286027A1, “ANTI-BACTERIAL COMPOSITIONS” (priority 2008, published 2010).
# Key:
# [1] = system: Propionibacterium acnes NB99001; experiment: MIC against anaerobic bacteria; type: cell-based; conditions: Cutibacterium acnes, read-out: minimal inhibitory concentration (MIC)
# [2] = system: Peptostreptococcus anaerobius NB97001; experiment: MIC against anaerobic bacteria; type: cell-based; conditions: read-out: minimal inhibitory concentration (MIC)
# [3] = system: Prevotella intermedia NB88001; experiment: MIC against anaerobic bacteria; type: cell-based; conditions: read-out: minimal inhibitory concentration (MIC)
# [4] = system: Eubacterium lentum NB94001; experiment: MIC against anaerobic bacteria; type: cell-based; conditions: read-out: minimal inhibitory concentration (MIC)
# [5] = system: Bacteroides fragilis NB85001; experiment: MIC against anaerobic bacteria; type: cell-based; conditions: read-out: minimal inhibitory concentration (MIC)
# [6] = system: Listeria monocytogenes (7644); experiment: BacTiter-Glo bacterial ATP content viability assay
# [7] = system: Bacillus Subtilis (6633); experiment: BacTiter-Glo bacterial ATP content viability assay; conditions: for B. subtilis viability by ATP-coupled luminescence assay: FIG. 12, full length protein
# [8] = system: Staphylococcus aureus (29213); experiment: BacTiter-Glo bacterial ATP content viability assay; conditions: for S. aureus viability by ATP-coupled luminescence assay: FIG. 12, full length protein
# [9] = system: Enterococcus faecalis (29212); experiment: BacTiter-Glo bacterial ATP content viability assay; conditions: for E. faecals viability by ATP-coupled luminescence assay: FIG. 12, full length protein
# [10] = system: S. maltophilia; experiment: Bacterial growth inhibition (FIG. 15); type: cell-based, Stenotrophomonas maltophilia; conditions: FIG. 15 Panel A
# [11] = system: Escherichia coli (8739); experiment: BacTiter-Glo bacterial ATP content viability assay; conditions: gram −, +/− SD, n = 3, >100 = activity detected but <50% inhibition
# [12] = system: Escherichia coli (25922); experiment: BacTiter-Glo bacterial ATP content viability assay; conditions: gram −, +/− SD, n = 3, >100 = activity detected but <50% inhibition
# [13] = system: E. coli NB27005* (TolC efflux pump mutant); experiment: MIC against aerobic gram negative bacteria, efflux pump mutant; type: cell-based, Escherichia coli; conditions: aerobic gram negative; E. coli NB27005*, TolC efflux pump mutant strain
# [14] = system: Streptococcus pneumoniae (ATCC 49619); experiment: Gentamycin protection assay in stable 293 cell lines; conditions: 293 cells stably expressing the protein, infected with S. pneumoniae at MOI 10:1, versus control cells
# [15] = system: Pseudomonas aeruginosa (27853); experiment: BacTiter-Glo bacterial ATP content viability assay; conditions: gram −, +/− SD, n = 3, >100 = activity detected but <50% inhibition
# [16] = system: Klebsiella pneumoniae (700603); experiment: BacTiter-Glo bacterial ATP content viability assay; conditions: gram −, +/− SD, n = 3, >100 = activity detected but <50% inhibition
# [17] = system: Salmonella choleraesuis (13076); experiment: BacTiter-Glo bacterial ATP content viability assay; conditions: gram −, +/− SD, n = 3, >100 = activity detected but <50% inhibition
# [18] = system: Streptococcus pneumoniae (49619); experiment: BacTiter-Glo bacterial ATP content viability assay; conditions: gram +, +/− SD, n = 3, >100 = activity detected but <50% inhibition
# [19] = system: L. monocytogenes; experiment: Bacterial growth inhibition (FIG. 15); type: cell-based, Listeria monocytogenes; conditions: FIG. 15 Panel C
# [20] = system: H. influenzae NB65027-CDS0021* (TolC efflux pump mutant); experiment: MIC against aerobic gram negative bacteria, efflux pump mutant; type: cell-based, Haemophilus influenzae; conditions: aerobic gram negative; H. influenzae NB65027-CDS0021*, TolC efflux pump mutant strain
# [21] = system: lawn of the indicated bacteria; experiment: Agar diffusion assay; conditions: FIG. 11 Panel D; 0.5 mg/ml in sterile PBS per well
# [22] = system: Stenotrophomonas maltophilia (17666); experiment: BacTiter-Glo bacterial ATP content viability assay; conditions: gram −, +/− SD, n = 3, >100 = activity detected but <50% inhibition
# [23] = FIG. 10, 5×10^5 bacteria/100 μl, increasing concentrations, 6 hours at 37° C., relative to controls
molecule,measurement,setting,value
"O=C(O)c1cn(C2CC2)c2cc(N3CCNCC3)c(F)cc2c1=O [Ciprofloxacin, reference compound]",MIC,[1],1 µg/mL
same,MIC,[2],1 µg/mL
same,MIC,[3],1 µg/mL
same,MIC,[4],2 µg/mL
same,MIC,[5],8 µg/mL
TLR2: recombinant LRR domain of Toll-like receptor 2; human TLR2-LRR is SEQ ID NO: 6,L. monocytogenes viability by ATP-coupled luminescence assay,[6]; [23],inhibit
G908R: full length Nod2 protein carrying the Crohn's-associated G908R mutation,L. monocytogenes viability by ATP-coupled luminescence assay,"[6]; FIG. 12, full length protein",deficient
same,B. subtilis viability by ATP-coupled luminescence assay,[7],deficient
same,S. aureus viability by ATP-coupled luminescence assay,[8],deficient
same,E. faecals viability by ATP-coupled luminescence assay,[9],deficient
"NAIP: Neuronal apoptosis inhibitor protein, an LRR protein (protein, UniProt Q13075 1-1403, looked up) Baculoviral IAP …: MATQQKASDERISQFDHNLLPELSALLGLDAVQLAKELEEEEQKERAKMQKGYNSQMRSEAKRLKTFVTYEPYSSWIPQEMAAAGFYFTGVKSGIQCFCCSLILFGAGLTRLPIEDHKRFHPDCGFLLNKDVGNIAKYDIRVKNLKSRLRGGKMRYQEEEARLASFRNWPFYVQGISPCVLSEAGFVFTGKQDTVQCFSCGGCLGNWEEGDDPWKEHAKWFPKCEFLRSKKSSEEITQYIQSYKGFVDITGEHFVNSWVQRELPMASAYCNDSIFAYEELRLDSFKDWPRESAVGVAALAKAGLFYTGIKDIVQCFSCGGCLEKWQEGDDPLDDHTRCFPNCPFLQNMKSSAEVTPDLQSRGELCELLETTSESNLEDSIAVGPIVPEMAQGEAQWFQEAKNLNEQLRAAYTSASFRHMSLLDISSDLATDHLLGCDLSIASKHISKPVQEPLVLPEVFGNLNSVMCVEGEAGSGKTVLLKKIAFLWASGCCPLLNRFQLVFYLSLSSTRPDEGLASIICDQLLEKEGSVTEMCVRNIIQQLKNQVLFLLDDYKEICSIPQVIGKLIQKNHLSRTCLLIAVRTNRARDIRRYLETILEIKAFPFYNTVCILRKLFSHNMTRLRKFMVYFGKNQSLQKIQKTPLFVAAICAHWFQYPFDPSFDDVAVFKSYMERLSLRNKATAEILKATVSSCGELALKGFFSCCFEFNDDDLAEAGVDEDEDLTMCLMSKFTAQRLRPFYRFLSPAFQEFLAGMRLIELLDSDRQEHQDLGLYHLKQINSPMMTVSAYNNFLNYVSSLPSTKAGPKIVSHLLHLVDNKESLENISENDDYLKHQPEISLQMQLLRGLWQICPQAYFSMVSEHLLVLALKTAYQSNTVAACSPFVLQFLQGRTLTLGALNLQYFFDHPESLSLLRSIHFPIRGNKTSPRAHFSVLETCFDKSQVPTIDQDYASAFEPMNEWERNLAEKEDNVKSYMDMQRRASPDLSTGYWKLSPKQYKIPCLEVDVNDIDVVGQDMLEILMTVFSASQRIELHLNHSRGFIESIRPALELSKASVTKCSISKLELSAAEQELLLTLPSLESLEVSGTIQSQDQIFPNLDKFLCLKELSVDLEGNINVFSVIPEEFPNFHHMEKLLIQISAEYDPSKLVKLIQNSPNLHVFHLKCNFFSDFGSLMTMLVSCKKLTEIKFSDSFFQAVPFVASLPNFISLKILNLEGQQFPDEETSEKFAYILGSLSNLEELILPTGDGIYRVAKLIIQQCQQLHCLRVLSFFKTLNDDSVVEIAKVAISGGFQKLENLKLSINHKITEEGYRNFFQALDNMPNLQELDISRHFTECIKAQATTVKSLSQCVLRLPRLIRLNMLSWLLDADDIALLNVMKERHPQSKYLTILQKWILPFSPIIQK",growth of S. maltophilia,[10],inhibited the growth
Nod2 3020insC: recombinant LRR domain of the Crohn's-associated 3020insC mutant of Nod2 (deoxycytosine inserted at nucleotide position 3020) (protein) PAAPGEAKSVHAMPGFIWLIRSLYEMQEERLARKAARGLNVGHLKLTFCSVGPTECAALAFVLQHLRRPVALQLDYNSVGDIGVEQLLPCLGVCKALYLRDNNISDRGICKLIECALHCEQLQKLALFNNKLTDGCAHSMAKLLACRQNFLALRLGNNYITAAGAQVLAEGLRGNTSLQFLGFWGNRVGDEGAQALAEALGDHQSLRWLSLVGNNIGSVGAQALALMLAKNVMLEELCLEENHLQDEGVCSLAEGLKKNSSLKILKLSNNCITYLGAEALLQAP,"antibacterial activity by bacterial ATP content (IC50), [LRR domain]",[11],None detected
same,"antibacterial activity by bacterial ATP content (IC50), [LRR domain]",[12],None detected
same,L. monocytogenes viability by ATP-coupled luminescence assay,"[6]; FIG. 12, full length protein",deficient
same,"antibacterial activity by bacterial ATP content (IC50), [LRR domain]","[6]; Listeria monocytogenes (7644), gram +, +/− SD, n = 3, >100 = activity detected but <50% inhibition",16.5 +/− 13.3 microgram/ml
same,minimal inhibitory concentration (MIC),[13],>128 microgram/ml
same,number of gentamycin-protected intracellular bacteria,[14],No obvious protection
same,"antibacterial activity by bacterial ATP content (IC50), [LRR domain]","[7]; Bacillus Subtilis (6633), gram +, +/− SD, n = 3, >100 = activity detected but <50% inhibition",54.0 +/− 20.2 microgram/ml
same,B. subtilis viability by ATP-coupled luminescence assay,[7],deficient
same,"antibacterial activity by bacterial ATP content (IC50), [LRR domain]",[15],None detected
same,"antibacterial activity by bacterial ATP content (IC50), [LRR domain]",[16],None detected
same,"antibacterial activity by bacterial ATP content (IC50), [LRR domain]",[17],None detected
same,"antibacterial activity by bacterial ATP content (IC50), [LRR domain]",[18],None detected
same,S. aureus viability by ATP-coupled luminescence assay,[8],deficient
same,"antibacterial activity by bacterial ATP content (IC50), [LRR domain]","[8]; Staphylococcus aureus (29213), gram +, +/− SD, n = 3, >100 = activity detected but <50% inhibition",None detected
same,"antibacterial activity by bacterial ATP content (IC50), [LRR domain]","[9]; Enterococcus faecalis (29212), gram +, +/− SD, n = 3, >100 = activity detected but <50% inhibition",None detected
same,E. faecals viability by ATP-coupled luminescence assay,[9],deficient
same,L. monocytogenes growth,[19],inhibited
same,minimal inhibitory concentration (MIC),[20],64 microgram/ml
same,anti-bacterial activity by agar diffusion assay,[21],not
same,"antibacterial activity by bacterial ATP content (IC50), [LRR domain]",[22],None detected
"Nalp3: recombinant LRR domain of Nalp3; human Nalp3-LRR is SEQ ID NO: 7 (protein, listed as Homo sapiens) MVQCVLPSSSHAACSHGLVNSHLTSSFCRGLFSVLSTSQSLTELDLSDNSLGDPGMRVLCETLQHPGCNIRRLWLGRCGLSHECCFDISLVLSSNQKLVELDLSDNALGDFGIRLLCVGLKHLLCNLKKLWLVSCCLTSACCQDLASVLSTSHSLTRLYVGENALGDSGVAILCEKAKNPQCNLQKLGLVNSGLTSVCCSALSSVLSTNQNLTHLYLRGNTLGDKGIKLLCEGLLHPDCKLQVLELDNCNLTSHCCWDLSTLLTSSQSLRKLSLGNNDLGDLGVMMFCEVLKQQSCLLQNLGLSEMYFNYETKSALETLQEEKPELTVVFEPSW",L. monocytogenes viability by ATP-coupled luminescence assay,[6]; [23],inhibit
